Test results from patent US20210107998A1 (Boehringer Ingelheim, published 2021).

What was measured:
Test in all cases: cell-based or functional assay
[1] = molecular target: Recombinant human BAFF 60mer (Boehringer Ingelheim Pharmaceuticals, Inc.) (human, UniProt Q9Y275 134-285, limits assumed)
[2] = molecular target: T1, Recombinant human BAFF trimer (Boehringer Ingelheim Pharmaceuticals, Inc.) (human, UniProt Q9Y275 134-285, limits assumed)
[3] = molecular target: Recombinant cynomolgus BAFF trimer (Boehringer Ingelheim Pharmaceuticals, Inc.) (cynomolgus, UniProt A0A2K5V2X4 134-285)
[4] = molecular target: T1, Recombinant human BAFF trimer …; remark: listed apart in the source
[5] = molecular target: membrane-bound human BAFF on fixed CHO-K1 cells (human, UniProt Q9Y275 1-285)

Binder | IC50, NFkB luciferase reporter, human BAFFR-CHO cells [1] [pM] | IC90, NFkB luciferase reporter, human BAFFR-CHO cells [1] [pM] | IC50, NFkB luciferase reporter, human BAFFR-CHO cells [2] [pM] | IC90, NFkB luciferase reporter, human BAFFR-CHO cells [2] [pM] | IC50 Geomean, NFkB luciferase reporter, human BAFFR-CHO cells [3] [pM] | IC90 Geomean, NFkB luciferase reporter, human BAFFR-CHO cells [3] [pM] | IC50 Geomean, NFkB luciferase reporter, human TACI-CHO cells [4] [pM] | IC90 Geomean, NFkB luciferase reporter, human TACI-CHO cells [4] [pM] | IC50, NFkB luciferase reporter, human BAFFR-CHO cells stimulated with fixed human BAFF CHO-K1 cells [5] [pM] | IC90, NFkB luciferase reporter, human BAFFR-CHO cells stimulated with fixed human BAFF CHO-K1 cells [5] [pM]
Compound O (bispecific antibody, human IgG1, kappa, L234A L235A) chain 1: DIQMTQSPSSLSASVGDRVSITCKASQNAGIDVAWFQQKPGKAPKLLIYSKSNRYTGVPSRFSGSGSGTDFTLTISSLQPEDFADYYCLQYRSYPRTFGGGTKLEIKGGGSGGGGQVQLVQSGAEVKKPGSSVKVSCKASGYTFTDQTIHWMRQAPGQGLEWIGYIYPRDDSPKYNENFKGKVTITADKSTSTAYMELSSLRSEDTAVYYCAIPDRSGYAWFIYWGQGTLVTVSSLGGGSGASTKGPSVFPLAPSSKSTSGGTAALGCLVKDYFPEPVTVSWNSGALTSGVHTFPAVLQSSGLYSLSSVVTVPSSSLGTQTYICNVNHKPSNTKVDKRVEPKSCDKTHTCPPCPAPEAAGGPSVFLFPPKPKDTLYITREPEVTCVVVDVSHEDPEVKFNWYVDGVEVHNAKTKPREEQYNSTYRVVSVLTVLHQDWLNGKEYKCKVSNKALPAPIEKTISKAKGQPREPQVYTLPPSREEMTKNQVSLTCLVKGFYPSDIAVEWESNGQPENNYKTTPPVLDSDGSFFLYSKLTVDKSRWQQGNVFSCSVMHEALHNHYTQKSLSLSPG chain 2: DIQMTQSPSSLSASVGDRVTITCKASRDVAIAVAWYQQKPGKVPKLLIYWASTRHTGVPSRFSGSGSRTDFTLTISSLQPEDVADYFCHQYSSYPFTFGSGTKLEIKGGGSGGGGQVQLVQSGAEVKKPGASVKVSCKASGYSFSTFFIHWVRQRPGQGLEWIGRIDPNSGATKYNEKFESKVTLTRDTSISTAYMELSRLRSDDTAVYYCARGEDLLIRTDALDYWGQGTSVTVSSLGGGSGRTVAAPSVFIFPPSDEQLKSGTASVVCLLNNFYPREAKVQWKVDNALQSGNSQESVTEQDSKDSTYSLSSTLTLSKADYEKHKVYACEVTHQGLSSPVTKSFNRGEC | 5 | 6 | 27 | 119 | – | – | – | – | – | –
Compound P (bispecific antibody, human IgG4 S228P, kappa) chain 1: DIQMTQSPSSLSASVGDRVSITCKASQNAGIDVAWFQQKPGKAPKLLIYSKSNRYTGVPSRFSGSGSGTDFTLTISSLQPEDFADYYCLQYRSYPRTFGGGTKLEIKGGGSGGGGQVQLVQSGAEVKKPGSSVKVSCKASGYTFTDQTIHWMRQAPGQGLEWIGYIYPRDDSPKYNENFKGKVTITADKSTSTAYMELSSLRSEDTAVYYCAIPDRSGYAWFIYWGQGTLVTVSSLGGGSGASTKGPSVFPLAPCSRSTSESTAALGCLVKDYFPEPVTVSWNSGALTSGVHTFPAVLQSSGLYSLSSVVTVPSSSLGTKTYTCNVDHKPSNTKVDKRVESKYGPPCPPCPAPEFLGGPSVFLFPPKPKDTLYITREPEVTCVVVDVSQEDPEVQFNWYVDGVEVHNAKTKPREEQFNSTYRVVSVLTVLHQDWLNGKEYKCKVSNKGLPSSIEKTISKAKGQPREPQVYTLPPSQEEMTKNQVSLTCLVKGFYPSDIAVEWESNGQPENNYKTTPPVLDSDGSFFLYSRLTVDKSRWQEGNVFSCSVMHEALHNHYTQKSLSLSLG chain 2: DIQMTQSPSSLSASVGDRVTITCKASRDVAIAVAWYQQKPGKVPKLLIYWASTRHTGVPSRFSGSGSRTDFTLTISSLQPEDVADYFCHQYSSYPFTFGSGTKLEIKGGGSGGGGQVQLVQSGAEVKKPGASVKVSCKASGYSFSTFFIHWVRQRPGQGLEWIGRIDPNSGATKYNEKFESKVTLTRDTSISTAYMELSRLRSDDTAVYYCARGEDLLIRTDALDYWGQGTSVTVSSLGGGSGRTVAAPSVFIFPPSDEQLKSGTASVVCLLNNFYPREAKVQWKVDNALQSGNSQESVTEQDSKDSTYSLSSTLTLSKADYEKHKVYACEVTHQGLSSPVTKSFNRGEC | 2 | 9 | 19 | 88 | – | – | – | – | – | –
Compound Q (bispecific antibody, human IgG1, kappa, L234A L235A) chain 1: DIQMTQSPSSLSASVGDRVSITCKASQNAGIDVAWFQQKPGKAPKLLIYSKSNRYTGVPSRFSGSGSGTDFTLTISSLQPEDFATYYCLQYRSYPRTFGQGTKLEIKGGGSGGGGQVQLVQSGAEVKKPGSSVKVSCKASGYTFTDQTIHWMRQAPGQGLEWIGYIYPRDDSPKYNENFKGKVTITADKSTSTAYMELSSLRSEDTAVYYCAIPDRSGYAWFIYWGQGTLVTVSSLGGGSGASTKGPSVFPLAPSSKSTSGGTAALGCLVKDYFPEPVTVSWNSGALTSGVHTFPAVLQSSGLYSLSSVVTVPSSSLGTQTYICNVNHKPSNTKVDKRVEPKSCDKTHTCPPCPAPEAAGGPSVFLFPPKPKDTLYITREPEVTCVVVDVSHEDPEVKFNWYVDGVEVHNAKTKPREEQYNSTYRVVSVLTVLHQDWLNGKEYKCKVSNKALPAPIEKTISKAKGQPREPQVYTLPPSREEMTKNQVSLTCLVKGFYPSDIAVEWESNGQPENNYKTTPPVLDSDGSFFLYSKLTVDKSRWQQGNVFSCSVMHEALHNHYTQKSLSLSPG chain 2: DIQMTQSPSSLSASVGDRVTITCKASRDVAIAVAWYQQKPGKVPKLLIYWASTRHTGVPSRFSGSGSRTDFTLTISSLQPEDVADYFCHQYSSYPFTFGSGTKLEIKGGGSGGGGQVQLVQSGAEVKKPGASVKVSCKASGYSFSTFFIHWVRQAPGQGLEWIGRIDPNSGATKYNEKFESRVTMTRDTSISTAYMELSRLRSDDTAVYYCARGEDLLIRTDALDYWGQGTSVTVSSLGGGSGRTVAAPSVFIFPPSDEQLKSGTASVVCLLNNFYPREAKVQWKVDNALQSGNSQESVTEQDSKDSTYSLSSTLTLSKADYEKHKVYACEVTHQGLSSPVTKSFNRGEC | 5 | 13 | 26 | 108 | – | – | – | – | – | –
Compound R (bispecific antibody, human IgG4 S228P, kappa) chain 1: DIQMTQSPSSLSASVGDRVSITCKASQNAGIDVAWFQQKPGKAPKLLIYSKSNRYTGVPSRFSGSGSGTDFTLTISSLQPEDFATYYCLQYRSYPRTFGQGTKLEIKGGGSGGGGQVQLVQSGAEVKKPGSSVKVSCKASGYTFTDQTIHWMRQAPGQGLEWIGYIYPRDDSPKYNENFKGKVTITADKSTSTAYMELSSLRSEDTAVYYCAIPDRSGYAWFIYWGQGTLVTVSSLGGGSGASTKGPSVFPLAPCSRSTSESTAALGCLVKDYFPEPVTVSWNSGALTSGVHTFPAVLQSSGLYSLSSVVTVPSSSLGTKTYTCNVDHKPSNTKVDKRVESKYGPPCPPCPAPEFLGGPSVFLFPPKPKDTLYITREPEVTCVVVDVSQEDPEVQFNWYVDGVEVHNAKTKPREEQFNSTYRVVSVLTVLHQDWLNGKEYKCKVSNKGLPSSIEKTISKAKGQPREPQVYTLPPSQEEMTKNQVSLTCLVKGFYPSDIAVEWESNGQPENNYKTTPPVLDSDGSFFLYSRLTVDKSRWQEGNVFSCSVMHEALHNHYTQKSLSLSLG chain 2: DIQMTQSPSSLSASVGDRVTITCKASRDVAIAVAWYQQKPGKVPKLLIYWASTRHTGVPSRFSGSGSRTDFTLTISSLQPEDVADYFCHQYSSYPFTFGSGTKLEIKGGGSGGGGQVQLVQSGAEVKKPGASVKVSCKASGYSFSTFFIHWVRQAPGQGLEWIGRIDPNSGATKYNEKFESRVTMTRDTSISTAYMELSRLRSDDTAVYYCARGEDLLIRTDALDYWGQGTSVTVSSLGGGSGRTVAAPSVFIFPPSDEQLKSGTASVVCLLNNFYPREAKVQWKVDNALQSGNSQESVTEQDSKDSTYSLSSTLTLSKADYEKHKVYACEVTHQGLSSPVTKSFNRGEC | 5 | 16 | 30 | 139 | – | – | – | – | – | –
Compound X (bispecific antibody, human IgG4 S228P, kappa) chain 1: SSELTQDPAVSVALGQTVRVTCQGDSLRSYYASWYQQKPGQAPVLVIYGKNNRPSGIPDRFSGSSSGNTASLTITGAQAEDEADYYCSSRDSSGNHWVFGGGTELTVLGGGSGGGGQVQLVQSGAEVKKPGSSVKVSCKASGYTFTDQTIHWMRQAPGQGLEWIGYIYPRDDSPKYNENFKGKVTITADKSTSTAYMELSSLRSEDTAVYYCAIPDRSGYAWFIYWGQGTLVTVSSLGGGSGASTKGPSVFPLAPCSRSTSESTAALGCLVKDYFPEPVTVSWNSGALTSGVHTFPAVLQSSGLYSLSSVVTVPSSSLGTKTYTCNVDHKPSNTKVDKRVESKYGPPCPPCPAPEFLGGPSVFLFPPKPKDTLYITREPEVTCVVVDVSQEDPEVQFNWYVDGVEVHNAKTKPREEQFNSTYRVVSVLTVLHQDWLNGKEYKCKVSNKGLPSSIEKTISKAKGQPREPQVYTLPPSQEEMTKNQVSLTCLVKGFYPSDIAVEWESNGQPENNYKTTPPVLDSDGSFFLYSRLTVDKSRWQEGNVFSCSVMHEALHNHYTQKSLSLSLG chain 2: DIQMTQSPSSLSASVGDRVTITCKASRDVAIAVAWYQQKPGKVPKLLIYWASTRHTGVPSRFSGSGSRTDFTLTISSLQPEDVADYFCHQYSSYPFTFGSGTKLEIKGGGSGGGGQVQLQQSGAEVKKPGSSVRVSCKASGGTFNNNAINWVRQAPGQGLEWMGGIIPMFGTAKYSQNFQGRVAITADESTGTASMELSSLRSEDTAVYYCARSRDLLLFPHHALSPWGRGTMVTVSSLGGGSGRTVAAPSVFIFPPSDEQLKSGTASVVCLLNNFYPREAKVQWKVDNALQSGNSQESVTEQDSKDSTYSLSSTLTLSKADYEKHKVYACEVTHQGLSSPVTKSFNRGEC | 1560 | 6840 | 106 | 361 | – | – | – | – | – | –
Control Antibody 1 (anti-BAFF monoclonal antibody) (BAFF (1)) (antibody, V domains shown) VH: QVQLQQSGAEVKKPGSSVRVSCKASGGTFNNNAINWVRQAPGQGLEWMGGIIPMFGTAKYSQNFQGRVAITADESTGTASMELSSLRSEDTAVYYCARSRDLLLFPHHALSPWGRGTMVTVSS VL: SSELTQDPAVSVALGQTVRVTCQGDSLRSYYASWYQQKPGQAPVLVIYGKNNRPSGIPDRFSGSSSGNTASLTITGAQAEDEADYYCSSRDSSGNHWVFGGGTELTVL | 24100 | 180000 | 232 | 743 | 288 | 635 | 273 | 576 | 553 | 10100
